This assay concerns the target human cyclic nucleotide-gated channel β1-subunit, wild type (human) (UniProt Q14028). In words: HEK 293 plasma membrane recruitment assay.

human cyclic nucleotide-gated channel β1-subunit, wild type (human), sequence (Q14028 whole entry): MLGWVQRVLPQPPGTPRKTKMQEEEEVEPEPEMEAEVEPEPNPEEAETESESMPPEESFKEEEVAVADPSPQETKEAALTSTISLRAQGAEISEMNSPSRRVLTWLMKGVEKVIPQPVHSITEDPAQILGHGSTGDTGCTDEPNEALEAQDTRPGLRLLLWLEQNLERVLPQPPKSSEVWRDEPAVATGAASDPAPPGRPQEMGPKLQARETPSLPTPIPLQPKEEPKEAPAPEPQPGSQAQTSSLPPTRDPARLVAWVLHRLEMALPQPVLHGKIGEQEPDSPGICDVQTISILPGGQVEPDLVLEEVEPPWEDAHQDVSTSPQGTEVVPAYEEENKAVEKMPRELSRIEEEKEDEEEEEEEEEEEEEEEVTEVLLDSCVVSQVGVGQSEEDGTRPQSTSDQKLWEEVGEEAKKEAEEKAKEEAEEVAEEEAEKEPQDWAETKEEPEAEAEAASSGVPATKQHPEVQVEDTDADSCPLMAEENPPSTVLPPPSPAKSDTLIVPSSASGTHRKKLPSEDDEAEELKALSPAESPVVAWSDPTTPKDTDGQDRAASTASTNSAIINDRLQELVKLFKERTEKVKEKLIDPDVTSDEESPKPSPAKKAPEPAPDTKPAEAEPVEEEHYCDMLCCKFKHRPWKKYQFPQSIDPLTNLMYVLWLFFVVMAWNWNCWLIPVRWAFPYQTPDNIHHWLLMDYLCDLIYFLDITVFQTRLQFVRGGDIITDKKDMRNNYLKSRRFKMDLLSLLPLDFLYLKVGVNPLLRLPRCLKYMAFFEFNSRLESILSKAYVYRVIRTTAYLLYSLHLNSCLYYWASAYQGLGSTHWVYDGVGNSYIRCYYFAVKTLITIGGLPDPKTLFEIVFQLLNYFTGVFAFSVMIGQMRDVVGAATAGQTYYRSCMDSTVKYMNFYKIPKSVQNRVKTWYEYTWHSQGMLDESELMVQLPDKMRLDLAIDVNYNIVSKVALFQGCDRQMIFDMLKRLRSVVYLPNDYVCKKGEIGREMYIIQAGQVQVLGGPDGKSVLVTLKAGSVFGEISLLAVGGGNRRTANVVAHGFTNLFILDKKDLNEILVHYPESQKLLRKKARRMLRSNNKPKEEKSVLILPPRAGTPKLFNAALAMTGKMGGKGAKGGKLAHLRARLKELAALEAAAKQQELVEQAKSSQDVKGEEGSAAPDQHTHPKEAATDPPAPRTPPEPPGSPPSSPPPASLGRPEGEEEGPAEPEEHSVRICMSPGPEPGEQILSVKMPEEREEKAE

As to “ankyrin-G fused to green fluorescent protein, O70511 1-2622”, the cells with complete recruitment is 65 % of cells.

Source of the values: publication PMC2792576.
